Measured values: the supplement of paper PMC10724198
± gives the standard deviation of the averaged measurements.

Columns and labels:
Saccharomyces cerevisiae [1] = assay: protein stability index of tFT-peptide fusion (C-terminal peptide) (PSI (0-1 scale)); higher = more stable (slower turnover); settings: genetic background: wild type; temperature: 30 C
Saccharomyces cerevisiae [2] = assay: as above
Experimental: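 MPS profiling in S. cerevisiae of the tFT-X12 degron library: putative degron peptides plus stable controls, 12 aa, fused to the C-terminus of a sfGFP-mCherry timer. Cells are FACS-sorted into 8 mCherry/sfGFP bins and deep-sequenced. PSI runs from 0 (unstable) to 1 (stable). Backgrounds are wild type, das1Δ and doa10Δ at 30 °C, and wild type, das1Δ, cdc34-1 and cdc53-1 at 37 °C; 2-3 technical replicates each.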

[3] = genetic background: cdc34-1, temperature: 37 C
[4] = genetic background: cdc53-1, temperature: 37 C
[5] = genetic background: das1 deletion, temperature: 30 C
[6] = genetic background: das1 deletion, temperature: 37 C
[7] = genetic background: doa10 deletion, temperature: 30 C
[8] = genetic background: wild type, temperature: 30 C
[9] = genetic background: wild type, temperature: 37 C
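Further: PSI is a weighted mean of sequencing reads over stability bins, variants kept only with over 10 reads, mCherry proximal and sfGFP distal, peptide attached via GGGS linker.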

Sequence	protein stability index (Saccharomyces cerevisiae [1])	protein stability index (Saccharomyces cerevisiae [2]; [3])	protein stability index (Saccharomyces cerevisiae [2]; [4])	protein stability index (Saccharomyces cerevisiae [2]; [5])	protein stability index (Saccharomyces cerevisiae [2]; [6])	protein stability index (Saccharomyces cerevisiae [2]; [7])	protein stability index (Saccharomyces cerevisiae [2]; [8])	protein stability index (Saccharomyces cerevisiae [2]; [9])
GESCGGSERRVG	0.643 ± 0.3	0.69 ± 0.019	0.7319 ± 0.0058	0.637 ± 0.009	0.7352 ± 0.0033	0.636 ± 0.024	0.666 ± 0.031	0.6897 ± 0.0056
GSGCLFNRWRIL	0.287 ± 0.045	0.6956 ± 0.0048	0.7303 ± 0.0059	0.6487 ± 0.0063	0.733 ± 0.022	0.169 ± 0.034	0.196 ± 0.027	0.46 ± 0.0074
LVMYRSALIRGH	0.462 ± 0.05	0.526 ± 0.039	0.529 ± 0.042	0.445 ± 0.0092	0.5693 ± 0.0033	0.3624 ± 0.00052	0.396 ± 0.03	0.525 ± 0.01
GTSDLIALLMLT	0.509 ± 0.083	0.688 ± 0.047	0.7275 ± 0.0021	0.607 ± 0.011	0.7058 ± 0.0013	0.361 ± 0.026	0.403 ± 0.045	0.601 ± 0.007
LASWVVFIWFLW	0.329 ± 0.077	0.253 ± 0.026	0.348 ± 0.012	0.278 ± 0.018	0.41 ± 0.01	0.281 ± 0.031	0.25 ± 0.043	0.423 ± 0.041
GVFVVVGEASVH	0.421 ± 0.023	0.546 ± 0.0025	0.5995 ± 0.0049	0.402 ± 0.023	0.574 ± 0.0029	0.389 ± 0.021	0.406 ± 0.017	0.564 ± 0.011
VCLFFFGYWCCL	0.501 ± 0.024	0.565 ± 0.066	0.555 ± 0.026	0.469 ± 0.015	0.566 ± 0.0067	0.493 ± 0.017	0.479 ± 0.0093	0.53 ± 0.011
GKVGGRMWVWRV	0.257 ± 0.0031	0.592 ± 0.041	0.73 ± 0.015	0.63 ± 0.013	0.72579 ± 0.00022	0.116 ± 0.014	0.129 ± 0.019	0.2406 ± 0.0022
VVLWWWVVARDL	0.44 ± 0.028	0.414 ± 0.019	0.495 ± 0.038	0.402 ± 0.03	0.551 ± 0.031	0.332 ± 0.026	0.339 ± 0.03	0.514 ± 0.01
RFCLLFVVAGGV	0.457 ± 0.017	0.516 ± 0.0057	0.527 ± 0.024	0.343 ± 0.019	0.546 ± 0.0069	0.35 ± 0.035	0.371 ± 0.018	0.516 ± 0.015
FVLSLGQLVFIF	0.445 ± 0.016	0.552 ± 0.03	0.5818 ± 0.0051	0.421 ± 0.028	0.607 ± 0.018	0.381 ± 0.0082	0.397 ± 0.029	0.548 ± 0.013
IYFFFFALHFPN	0.524 ± 0.067	0.498 ± 0.083	0.521 ± 0.013	0.366 ± 0.054	0.535 ± 0.029	0.388 ± 0.019	0.407 ± 0.025	0.544 ± 0.047
SPLASLRFWCFC	0.437 ± 0.015	0.68 ± 0.059	0.768 ± 0.0088	0.6502 ± 0.0037	0.778 ± 0.018	0.335 ± 0.01	0.349 ± 0.028	0.592 ± 0.024
VGAYSVVYVVFS	0.433 ± 0.036	0.481 ± 0.026	0.517 ± 0.011	0.322 ± 0.026	0.5467 ± 0.00081	0.272 ± 0.0067	0.318 ± 0.025	0.529 ± 0.0059
VSSFLLPFCLLF	0.51 ± 0.1	0.65 ± 0.025	0.689 ± 0.029	0.645 ± 0.0076	0.714 ± 0.025	0.654 ± 0.021	0.641 ± 0.016	0.6753 ± 0.0013
TFRPWPLHILAL	0.257 ± 0.029	0.195 ± 0.0033	0.219 ± 0.029	0.216 ± 0.038	0.325 ± 0.0089	0.15 ± 0.0036	0.166 ± 0.026	0.201 ± 0.019
TVYMVIRVIVWG	0.207 ± 0.027	0.129 ± 0.023	0.126 ± 0.046	0.141 ± 0.055	0.246 ± 0.0077	0.0909 ± 0.023	0.102 ± 0.032	0.154 ± 0.013
FFLRFGLFLFTL	0.421 ± 0.049	0.491 ± 0.0061	0.5109 ± 0.004	0.429 ± 0.017	0.564 ± 0.0091	0.4004 ± 0.0018	0.367 ± 0.05	0.4928 ± 0.0041
VFWVVFRALVGD	0.233 ± 0.022	0.191 ± 0.015	0.29497 ± 0.00028	0.217 ± 0.018	0.269 ± 0.02	0.222 ± 0.013	0.212 ± 0.0029	0.26 ± 0.0051
